Experimental data published in patent US20180214548A1 (SHANGHAI YUNYI HEALTHCARE AND TECHNOLOGY, published 2018).
Read-outs that look alike come from different tables or passages of the source. Blank lines part the entries; values can stand above or below the binder they belong to.

What was measured:
[1] = molecular target: T1, B7-1 (human, UniProt P33681 35-242); assay: ELISA on coated protein (Table 22)
T1 sequence (looked up): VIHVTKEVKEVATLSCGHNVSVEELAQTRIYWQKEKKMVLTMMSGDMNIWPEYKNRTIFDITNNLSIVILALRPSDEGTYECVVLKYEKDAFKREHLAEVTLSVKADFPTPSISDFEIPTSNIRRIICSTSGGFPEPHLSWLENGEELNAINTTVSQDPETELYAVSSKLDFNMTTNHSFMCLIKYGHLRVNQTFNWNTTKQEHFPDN

[2] = molecular target: CD28 (human, UniProt P10747 19-152); assay: ELISA on coated protein (Table 22)
Target sequence in this assay (P10747 19-152 limits assumed): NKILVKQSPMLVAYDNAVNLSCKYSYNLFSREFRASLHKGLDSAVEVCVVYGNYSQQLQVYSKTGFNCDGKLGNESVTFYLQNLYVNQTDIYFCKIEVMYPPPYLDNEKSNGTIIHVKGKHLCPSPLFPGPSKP

[3] = molecular target: T2, CTLA4 (human, UniProt P16410 37-162, limits assumed); assay: ELISA on coated protein (Table 22)
T2 sequence (looked up): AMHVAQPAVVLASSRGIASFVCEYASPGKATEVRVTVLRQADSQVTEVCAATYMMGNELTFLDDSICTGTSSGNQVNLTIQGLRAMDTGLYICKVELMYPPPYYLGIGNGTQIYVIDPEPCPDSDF

[4] = molecular target: T3, ICOS (human, UniProt Q9Y6W8 21-140, limits assumed); assay: ELISA on coated protein (Table 22)
T3 sequence (looked up): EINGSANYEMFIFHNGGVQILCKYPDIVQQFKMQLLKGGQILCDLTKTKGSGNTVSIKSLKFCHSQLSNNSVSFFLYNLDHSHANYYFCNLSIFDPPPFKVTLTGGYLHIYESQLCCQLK

[5] = molecular target: T4, human PD-1^ECD-hFc protein (Immunogen A) (human, UniProt Q15116 25-167); assay: protein-based receptor ligand blocking assay (fully human antibodies), blocked ligand PD-L2
T4 construct: Biotinylated for the Octet assay; also called PD-1-hFc; hPD-1^ECD-hFc; not shown: human IgG Fc fragment (hFc)
T4 sequence (Q15116 25-167): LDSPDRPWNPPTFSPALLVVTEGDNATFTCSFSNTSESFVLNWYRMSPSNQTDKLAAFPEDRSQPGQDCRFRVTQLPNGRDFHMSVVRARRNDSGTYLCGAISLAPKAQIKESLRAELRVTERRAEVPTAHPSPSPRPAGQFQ

[6] = molecular target: T5, full length human PD-1 on cells (human, UniProt Q15116 25-288); assay: cell-based receptor ligand blocking assay (fully human antibodies), blocked ligand PD-L1
T5 construct: Also used here for PD-1 on human T cells/PBMC; also called CHO-K1-hPD-1; hPD-1
T5 sequence (Q15116 25-288 limits assumed): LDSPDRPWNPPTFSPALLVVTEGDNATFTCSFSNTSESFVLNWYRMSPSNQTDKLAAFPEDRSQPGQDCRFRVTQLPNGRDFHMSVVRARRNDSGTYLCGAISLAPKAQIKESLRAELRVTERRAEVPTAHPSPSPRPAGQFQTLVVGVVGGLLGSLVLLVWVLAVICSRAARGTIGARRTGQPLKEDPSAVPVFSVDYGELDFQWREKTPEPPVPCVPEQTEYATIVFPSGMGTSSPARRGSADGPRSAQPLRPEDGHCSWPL

[7] = molecular target: T4, human PD-1^ECD-hFc protein (Immunogen A); assay: protein-based receptor ligand blocking assay (fully human antibodies), blocked ligand PD-L1
Procedure: Purified PD-1^ECD-hFc (Example 2) was diluted with PBS to a final concentration of 1.0 ug/mL, and 100 uL diluted PD-1^ECD-hFc were added to each well of a 96-well plate that was then sealed with plastic film and incubated at 4° C. overnight. The plate was washed twice with wash buffer (PBS+0.01% (v/v) Tween 20) and incubated with blocking buffer (PBS+[…]) at room temperature for 2 hours. The blocking buffer was aspirated, and 50 uL purified anti-PD-1 antibodies from Example 2 were added to each well of 96-well plate. […] The plate was washed three times with wash buffer (PBS+0.01% (v/v) Tween 20). 100 uL HRP-conjugated streptavidin (Sigma) were then added to each well and incubated at 37° C. for 2 hours. The plate was then washed three times with wash buffer, and 100 uL TMB substrate were added to each well. After 30 minutes of incubation at room temperature, the reaction was stopped by adding 100 uL stop solution (0.1N HCl). The absorbance at OD450 nm was measured with an ELISA plate reader (384plus SpectraMax, Molecular Devices).

[8] = molecular target: T6, CTLA4 (human, UniProt P16410 37-162, limits assumed); assay: ELISA, coated protein, antibody concentration not given
T6 sequence (looked up): T2 sequence (looked up)

[9] = molecular target: CD28 (human, UniProt P10747 19-152); assay: as above
Target sequence in this assay (P10747 19-152 limits assumed): as the sequence (P10747 19-152 limits assumed) above

[10] = molecular target: T7, NC-Fc; assay: as above
T7 construct: seemingly a negative control Fc protein

[11] = molecular target: T8, ICOS (human, UniProt Q9Y6W8 21-140, limits assumed); assay: as above
T8 sequence (looked up): T3 sequence (looked up)

[12] = molecular target: T9, B7.1 (human, UniProt P33681 35-242); assay: as above
T9 sequence (looked up): T1 sequence (looked up)

[13] = molecular target: T10, human PD-1^ECD-hFc protein (Immunogen A) (human, UniProt Q15116 25-167); assay: as above
T10 construct: also called PD-1-hFc; hPD-1^ECD-hFc; not shown: human IgG Fc fragment (hFc)
T10 sequence (Q15116 25-167): as the sequence (Q15116 25-167) above

[14] = molecular target: T11, His-tagged human PD-1 ECD protein (human, UniProt Q15116 25-167); assay: SPR Biacore T200, antibody captured by anti-human Fc, His-tagged hPD-1 ECD as analyte
T11 construct: also called His-tagged hPD-1 ECD; His-tagged PD-1^ECD; not shown: His tag
T11 sequence (Q15116 25-167): as above
Procedure: Anti-human Fc IgG was immobilized on flow cells 1 and 2: HBS-EP+(10 mM HEPES, 150 mM NaCl, 3 mM EDTA, 0.05% P20, pH 7.4) was used as running buffer, and the immobilization of anti-human Fc IgG was carried out using the immobilization wizard template. Flow cells 1 and 2 of a Series S CM5 sensor chip were activated with freshly-mixed 50 mmol/L NHS and 200 mmol/L EDC. 20 ug/mL of anti-human Fc IgG diluted in 10 mM NaAC (pH 4.5) was injected into the activated flow cells 1 and 2. The remaining active coupling sites were blocked with 1M ethanolamine.
Recombinant His-tagged hPD-1 ECD protein was diluted to 50 nM, followed by four 2-fold serial dilutions with HBS-EP+ buffer. […] KD measurements were carried out with HBS-EP+ as the running buffer. Each antibody was injected over the CM5 sensor flow cell 2 with a flow rate of 10 uL/min to reach response 230 RU. Prepared His-tagged hPD-1 ECD protein was then injected over flow cells 1 and 2, at a flow rate of 30 uL/min for 180 sec. Buffer flow was maintained for 400 seconds for dissociation measurements (30 uL/min). To remove the tested antibody from the surface, 10 mM glycine-HCl pH 1.5 was injected for 20 seconds (30 uL/min). Flow cell 1 was used as reference flow cell. The above steps were repeated for each concentration of serially-diluted His-tagged PD-1^ECD protein. The KD value for each antibody was evaluated using Biacore T200 evaluation software 1.0, and the data was fit with a 1:1 binding model.

[15] = molecular target: T12, cyno monkey PD-1^ECD-hFc protein (cyno monkey, UniProt B0LAJ3 25-167); assay: ELISA, coated cyno PD-1ECD-hFc
T12 construct: also called cyno PD-1^ECD-hFc; not shown: human IgG Fc fragment (hFc) and its junction to the ECD
T12 sequence (B0LAJ3 entry or part of it limits assumed): as the sequence (Q15116 25-167) above, with D2E, P10A, V19L, T35A, Q75R counted along it

[16] = molecular target: T13, human PD-1, full length, on cells (human, UniProt Q15116 25-288); assay: flow cytometry on CHO-K1-hPD-1 cells
T13 construct: whole, on cells; in the lymphocyte assays the natural PD-1 of human T cells/PBMCs; also called hPD-1; CHO-K1-hPD-1
T13 sequence (Q15116 25-288): as the sequence (Q15116 25-288 limits assumed) above

[17] = molecular target: T10, human PD-1^ECD-hFc protein (Immunogen A); assay: ELISA, coated human PD-1ECD-hFc
[18] = molecular target: T13, human PD-1, full length, on cells; assay: flow cytometry on activated human PBMCs (MFI)
[19] = molecular target: T5, full length human PD-1 on cells; assay: cell-based receptor ligand blocking assay (fully human antibodies), blocked ligand PD-L1; remark: listed apart in the source
[20] = molecular target: T4, human PD-1^ECD-hFc protein (Immunogen A); assay: protein-based receptor ligand blocking assay (fully human antibodies), blocked ligand PD-L2; remark: listed apart in the source

- binding result [1]: no binding
- binding result [2]: no binding
- binding result [3]: no binding
- binding result [4]: no binding
B1: fully human anti-PD-1 antibody 223G6B5 (antibody, human IgG4, V domains shown)
VH: QVQLQESGPGLVKPSETLSLTCAVSGHSIRGSYFWGWIRQPPGRGLEWIGSIYHSGSTYTNPSLKSRATISVDTSKNQFSLKLNSVTAADTAVYYCARDLDIATTRDYWGQGTLVTVSS
VL: DIQLTQSPSFLSASVGDRVTIICRASQGINNYLAWYQQKPGKAPKLLIYAASTLQSGVPSRFSGSGSGTEFTLTISSLQPEDFATYYCQQLDSYPRTFGQGTKVEIKR
notes: also called 223G6B5 (fully human, IgG4 S228P / kappa)

- IC50 (read off the curve) [5]: ~1 nM
- binding result [1]: no binding
- binding result [3]: no binding
- binding result [4]: no binding
- IC50 (read off the curve) [6]: ~5 nM
- IC50 (read off the curve) [7]: ~1 nM
B2: fully human anti-PD-1 antibody 21G8F11 (antibody, human IgG4 S228P, kappa, V domains shown)
VH: EVQLLESGGGLAQPGGSLRLSCAASGFSFNTYLMHWVRQAPGKGLEWVSAISGGGGNTYYADSVKGRFTISRDNSKNTLYLQMNSLRAEDTAVYYCAKENRIPVAPFDYWGQGTLVTVSS
VL: DIQMTQSPSTLSASVGDRVTITCRASQSISTWLAWYQQKPGKAPKLLIYKASSLESGVPSRFSGSGSGTEFTLTISSLQPDDLATYYCQQYNSFSWTFGQGTKVEIKR
notes: also called 21G8F11 (fully human, IgG4 S228P / kappa)

- OD450 nm [8]: 0.32 OD450
- OD450 nm [9]: 0.1 OD450
- OD450 nm [10]: 0.41 OD450
- OD450 nm [11]: 0.38 OD450
- OD450 nm [12]: 0.37 OD450
- OD450 nm [13]: 3.01 OD450
- Kd [14]: 0.936 nM
- koff [14]: 9.35e-05 s⁻¹
- kon [14]: 100000 M⁻¹ s⁻¹
- OD450 nm at 0 nM [15]: 0.06 OD450
- OD450 nm at 0.0001 nM [15]: 0.06 OD450
- OD450 nm at 0.001 nM [15]: 0.08 OD450
- OD450 nm at 0.01 nM [15]: 0.2 OD450
- OD450 nm at 0.1 nM [15]: 1.06 OD450
- OD450 nm at 1 nM [15]: 2.32 OD450
- OD450 nm at 10 nM [15]: 2.41 OD450
- OD450 nm at 100 nM [15]: 2.45 OD450
- MFI at 0 nM [16]: 4.1 MFI
- MFI at 0.01 nM [16]: 22.9 MFI
- OD450 nm at 0 nM [17]: 0.09 OD450
- OD450 nm at 0.0001 nM [17]: 0.1 OD450
- OD450 nm at 0.001 nM [17]: 0.12 OD450
- OD450 nm at 0.01 nM [17]: 0.28 OD450
- OD450 nm at 0.1 nM [17]: 1.34 OD450
- OD450 nm at 1 nM [17]: 2.47 OD450
- OD450 nm at 10 nM [17]: 2.44 OD450
- OD450 nm at 100 nM [17]: 2.58 OD450
- EC50 (read off the curve) [18]: ~0.2 nM
B3: fully human anti-PD-1 antibody 76G5B3 (antibody, human IgG4 S228P, kappa, V domains shown)
VH: QVQLVESGGGVVQPGRSLRLSCAASGFTFSDYGFHWVRQAPGKGLEWVAVIWYDGSNEYYTDSVKGRFTISRDNSKNTLYLQMNSLRAEDTAMYFCVVNPFDYWGQGTLVTVSS
VL: DIQMTQSPSSLSAFVGDRVTITCRASQGINHYLAWYQQKPGKAPNLLILAASTLLSGVPSRFGGRGSGTDFTLIISSLQPEDVATYYCQKYDSAPYTFGQGTKLEIKR

- IC50 (read off the curve) [19]: ~0.3 µg/mL
- IC50 (read off the curve) [20]: ~8 nM
- binding result [1]: no binding
- binding result [2]: no binding
- binding result [3]: no binding
- binding result [4]: no binding
- IC50 (read off the curve) [7]: ~2 nM
B4: fully human anti-PD-1 antibody 76G5B3 (antibody, human IgG4 S228P, kappa, V domains shown)
VH: B3 VH
VL: B3 VL
notes: also called 76G5B3 (fully human, IgG4 S228P / kappa)
